Measurements as given in publication PMC7906951.
Substitutions are numbered along the chain they refer to.

How the values were obtained:
Card1 (Tresu_2185, Cad1) = target: T1, Card1 (Tresu_2185, Cad1) (Treponema succinifaciens, UniProt F2NWD3 1-372); test: ITC
T1 sequence: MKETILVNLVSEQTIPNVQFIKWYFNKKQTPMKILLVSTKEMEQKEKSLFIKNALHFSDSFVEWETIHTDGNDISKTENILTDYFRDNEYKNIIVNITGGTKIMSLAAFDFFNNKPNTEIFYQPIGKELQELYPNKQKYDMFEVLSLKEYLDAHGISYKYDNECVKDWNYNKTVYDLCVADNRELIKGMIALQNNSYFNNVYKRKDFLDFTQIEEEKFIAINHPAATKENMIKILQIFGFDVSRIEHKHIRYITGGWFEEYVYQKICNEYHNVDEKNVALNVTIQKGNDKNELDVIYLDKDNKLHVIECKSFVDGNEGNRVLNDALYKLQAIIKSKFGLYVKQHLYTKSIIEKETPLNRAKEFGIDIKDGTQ

Card1 D294N = target: T2, Card1 D294N (Treponema succinifaciens, UniProt F2NWD3 1-372, D294N); test: crystal structure
T2 sequence: T1 sequence with D294N

## AAAAAA (ssRNA, cyclic 3'-5' oligoadenylate; no free ends) [cA6 (cyclic hexaadenylate)]
Card1 (Tresu_2185, Cad1)
  Kd: 78 nM

## AAAA (ssRNA, cyclic 3'-5' oligoadenylate; no free ends) [cA4 (cyclic tetraadenylate)]
Card1 D294N
  binding result: binds
Card1 (Tresu_2185, Cad1)
  Kd: 15 nM
